Source: paper PMC4001850 (Journal of Alzheimer's disease : JAD, 2011)
Where no end group is shown, it is not given here.

Target: the molecule itself
Assay: SEC

Row | Protein | stoichiometry N
1 | eAβPP_(290-624), His-Patch thioredoxin fusion (52-kDa) (domain or fragment, human, UniProt P05067-4 290-624, looked up) PTTAASTPDAVDKYLETPGDENEHAHFQKAKERLEAKHRERMSQVMREWEEAERQAKNLPKADKKAVIQHFQEKVESLEQEAANERQQLVETHMARVEAMLNDRRRLALENYITALQAVPPRPRHVFNMLKKYVRAEQKDRQHTLKHFEHVRMVDPKKAAQIRSQVMTHLRVIYERMNQSLSLLYNVPAVAEEIQDEVDELLQKEQNYSDDVLANMISEPRISYGNDALMPSLTETKTTVELLPVNGEFSLDDLQPWHSFGADSVPANTENEVEPVDARPAADRGLTTRPGSGLTNIKTEEISEVKMDAEFRHDSGYEVHHQKLVFFAEDVGSNK | ~2
2 | LTTRPGSGLTNIKTEEISEVKMDAEFRHDSGYEVHHQKLVFFAEDVGSNK (domain or fragment, human, UniProt P05067-4 575-624, looked up, also: His-Patch thioredoxin fusion (20 kDa), side not given here) [eAβPP_(575-624), His-Patch thioredoxin fusion (20-kDa)] | ~2
